Measured values as given in patent US20180155427A1 (Novartis, published 2018).

Columns and labels:
[1] = target: T1, human PD-1 expressed on cells (human, UniProt Q15116 25-288); assay: rank among the 16 humanized clones by FACS binding data on PD-1-expressing cells
T1 construct: whole, on cells; Treated as one molecule; also called PD-1 expressing Jurkat cells; human PD-1 transfected Jurkat cells

[2] = target: T1, human PD-1 expressed on cells; assay: rank among the 16 humanized clones in competition with Alexa 488-labeled murine mAb BAP049 on PD-1-expressing 300.19 cells, first experiment
Experimental: (§1) Incubations with the mAb mixtures having different concentration ratios of test mAb to labeled mAb was at 4° C. for 30 min. Bound labeled murine mAb was then quantified using a FACS machine. The experiment was performed twice.

[3] = target: T1, human PD-1 expressed on cells; assay: rank among the 16 humanized clones in competition with Alexa 488-labeled murine mAb BAP049 on PD-1-expressing 300.19 cells, second experiment
Experimental: as §1

[4] = target: T1, human PD-1 expressed on cells; assay: FACS blocking assay on PD-1-expressing 300.19 cells; blocked ligand at constant concentration: PD-L1-huIgG1 Fc fusion protein (legend paragraph 211 names 'PD-L1-Ig and PD-L2-Ig' for FIG. 8A); bound ligand detected with PE anti-human IgG F(ab')2
Experimental: Incubation was at 4° C. for 30 min. Bound ligand fusion proteins were detected with PE-conjugated F(ab′)2 fragment of goat anti-human IgG which doesn't recognize IgG4 mAbs (Southern Biotech 2043-09), and flow cytometry.

T1 sequence (Q15116 25-288): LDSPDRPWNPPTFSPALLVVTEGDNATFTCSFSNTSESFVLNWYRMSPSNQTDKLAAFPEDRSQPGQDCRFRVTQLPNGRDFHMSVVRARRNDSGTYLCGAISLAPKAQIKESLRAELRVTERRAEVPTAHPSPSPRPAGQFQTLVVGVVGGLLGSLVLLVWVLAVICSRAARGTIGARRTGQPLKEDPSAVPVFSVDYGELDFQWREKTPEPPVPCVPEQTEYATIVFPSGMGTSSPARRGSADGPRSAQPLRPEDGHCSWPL

Ranking FACS data [1]	Competition Binding 1st exp. (rank) [2]	Competition Binding 2nd exp. (rank) [3]	IC50 (read off the curve) [4] [mg/L]	Binder
15	16	15	–	humanized mAb BAP049-hum16 (antibody, human IgG4 S228P, kappa, V domains shown, Human IgG4(S228P), human kappa; tested as concentrated supernatant of transiently transfected CHO cells) VH: EVQLVQSGAEVKKPGESLRISCKGSGYTFTTYWMHWVRQAPGQGLEWMGNIYPGTGGSNFDEKFKNRFTISRDNSKNTLYLQMNSLRAEDTAVYYCTRWTTGTGAYWGQGTTVTVSS VL: EIVLTQSPDFQSVTPKEKVTITCKSSQSLLDSGNQKNFLTWYQQKPGQAPRLLIYWASTRESGVPSRFSGSGSGTDFTFTISSLEAEDAATYYCQNDYSYPYTFGQGTKVEIKR
7	8	14	–	humanized mAb BAP049-hum03 (antibody, human IgG4 S228P, kappa, V domains shown, Human IgG4(S228P), human kappa; tested as concentrated supernatant of transiently transfected CHO cells) VH: EVQLVQSGAEVKKPGESLRISCKGSGYTFTTYWMHWIRQSPSRGLEWLGNIYPGTGGSNFDEKFKNRFTISRDNSKNTLYLQMNSLRAEDTAVYYCTRWTTGTGAYWGQGTTVTVSS VL: DIQMTQSPSSLSASVGDRVTITCKSSQSLLDSGNQKNFLTWYQQKPGQAPRLLIYWASTRESGIPPRFSGSGYGTDFTLTINNIESEDAAYYFCQNDYSYPYTFGQGTKVEIKR
6	7	15	–	humanized mAb BAP049-hum15 (antibody, human IgG4 S228P, kappa, Human IgG4(S228P), human kappa; tested as concentrated supernatant of transiently transfected CHO cells) heavy: not shown light: EIVLTQSPDFQSVTPKEKVTITCKSSQSLLDSGNQKNFLTWYQQKPGQAPRLLIYWASTRESGVPSRFSGSGSGTDFTFTISSLEAEDAATYYCQNDYSYPYTFGQGTKVEIKRTVAAPSVFIFPPSDEQLKSGTASVVCLLNNFYPREAKVQWKVDNALQSGNSQESVTEQDSKDSTYSLSSTLTLSKADYEKHKVYACEVTHQGLSSPVTKSFNRGEC
7	6	> 4	~1	humanized mAb BAP049-hum10 (antibody, human IgG4 S228P, kappa, Human IgG4(S228P), human kappa; tested as concentrated supernatant of transiently transfected CHO cells; also called Clone No. 10) heavy: not shown light: EIVLTQSPATLSLSPGERATLSCKSSQSLLDSGNQKNFLTWYQQKPGQAPRLLIYWASTRESGVPSRFSGSGSGTDFTFTISSLEAEDAATYYCQNDYSYPYTFGQGTKVEIKRTVAAPSVFIFPPSDEQLKSGTASVVCLLNNFYPREAKVQWKVDNALQSGNSQESVTEQDSKDSTYSLSSTLTLSKADYEKHKVYACEVTHQGLSSPVTKSFNRGEC
6	4	> 4	–	humanized mAb BAP049-hum11 (antibody, human IgG4 S228P, kappa, Human IgG4(S228P), human kappa; tested as concentrated supernatant of transiently transfected CHO cells; also called Clone No. 11) heavy: not shown light: EIVLTQSPATLSLSPGERATLSCKSSQSLLDSGNQKNFLTWYQQKPGQAPRLLIYWASTRESGVPSRFSGSGSGTDFTFTISSLEAEDAATYYCQNDYSYPYTFGQGTKVEIKRTVAAPSVFIFPPSDEQLKSGTASVVCLLNNFYPREAKVQWKVDNALQSGNSQESVTEQDSKDSTYSLSSTLTLSKADYEKHKVYACEVTHQGLSSPVTKSFNRGEC
16	7	15	–	humanized mAb BAP049-hum14 (antibody, human IgG4 S228P, kappa, Human IgG4(S228P), human kappa; tested as concentrated supernatant of transiently transfected CHO cells) heavy: not shown light: EIVLTQSPATLSLSPGERATLSCKSSQSLLDSGNQKNFLTWYQQKPGQAPRLLIYWASTRESGVPSRFSGSGSGTDFTFTISSLEAEDAATYYCQNDYSYPYTFGQGTKVEIKRTVAAPSVFIFPPSDEQLKSGTASVVCLLNNFYPREAKVQWKVDNALQSGNSQESVTEQDSKDSTYSLSSTLTLSKADYEKHKVYACEVTHQGLSSPVTKSFNRGEC
14	15	15	–	humanized mAb BAP049-hum04 (antibody, human IgG4 S228P, kappa, V domains shown, Human IgG4(S228P), human kappa; tested as concentrated supernatant of transiently transfected CHO cells) VH: EVQLVQSGAEVKKPGESLRISCKGSGYTFTTYWMHWIRQSPSRGLEWLGNIYPGTGGSNFDEKFKNRFTISRDNSKNTLYLQMNSLRAEDTAVYYCTRWTTGTGAYWGQGTTVTVSS VL: EIVLTQSPATLSLSPGERATLSCKSSQSLLDSGNQKNFLTWYQQKPGKAPKLLIYWASTRESGVPSRFSGSGSGTDFTFTISSLQPEDIATYYCQNDYSYPYTFGQGTKVEIKR
5	5	> 4	~1	humanized mAb BAP049-hum05 (antibody, human IgG4 S228P, kappa, V domains shown, Human IgG4(S228P), human kappa; tested as concentrated supernatant of transiently transfected CHO cells; also called Clone No. 05) VH: EVQLVQSGAEVKKPGESLRISCKGSGYTFTTYWMHWVRQATGQGLEWMGNIYPGTGGSNFDEKFKNRVTITADKSTSTAYMELSSLRSEDTAVYYCTRWTTGTGAYWGQGTTVTVSS VL: EIVLTQSPATLSLSPGERATLSCKSSQSLLDSGNQKNFLTWYQQKPGKAPKLLIYWASTRESGVPSRFSGSGSGTDFTFTISSLQPEDIATYYCQNDYSYPYTFGQGTKVEIKR
7	7	4	–	humanized mAb BAP049-hum08 (antibody, human IgG4 S228P, kappa, Human IgG4(S228P), human kappa; tested as concentrated supernatant of transiently transfected CHO cells; also called Clone No. 08) heavy: not shown light: EIVLTQSPDFQSVTPKEKVTITCKSSQSLLDSGNQKNFLTWYQQKPGQAPRLLIYWASTRESGVPSRFSGSGSGTDFTFTISSLEAEDAATYYCQNDYSYPYTFGQGTKVEIKRTVAAPSVFIFPPSDEQLKSGTASVVCLLNNFYPREAKVQWKVDNALQSGNSQESVTEQDSKDSTYSLSSTLTLSKADYEKHKVYACEVTHQGLSSPVTKSFNRGEC
1	7	3	–	humanized mAb BAP049-hum06 (antibody, human IgG4 S228P, kappa, Human IgG4(S228P), human kappa; tested as concentrated supernatant of transiently transfected CHO cells) heavy: not shown light: DIVMTQTPLSLPVTPGEPASISCKSSQSLLDSGNQKNFLTWYQQKPGQAPRLLIYWASTRESGVPSRFSGSGSGTDFTFTISSLEAEDAATYYCQNDYSYPYTFGQGTKVEIKRTVAAPSVFIFPPSDEQLKSGTASVVCLLNNFYPREAKVQWKVDNALQSGNSQESVTEQDSKDSTYSLSSTLTLSKADYEKHKVYACEVTHQGLSSPVTKSFNRGEC
2	7	2	~1	humanized mAb BAP049-hum01 (antibody, human IgG4 S228P, kappa, V domains shown, Human IgG4(S228P), human kappa; tested as concentrated supernatant of transiently transfected CHO cells; also called Clone No. 01) VH: EVQLVQSGAEVKKPGESLRISCKGSGYTFTTYWMHWVRQATGQGLEWMGNIYPGTGGSNFDEKFKNRVTITADKSTSTAYMELSSLRSEDTAVYYCTRWTTGTGAYWGQGTTVTVSS VL: EIVLTQSPATLSLSPGERATLSCKSSQSLLDSGNQKNFLTWYQQKPGQAPRLLIYWASTRESGVPSRFSGSGSGTEFTLTISSLQPDDFATYYCQNDYSYPYTFGQGTKVEIKR
4	7	> 4	–	humanized mAb BAP049-hum07 (antibody, human IgG4 S228P, kappa, Human IgG4(S228P), human kappa; tested as concentrated supernatant of transiently transfected CHO cells) heavy: not shown light: EIVLTQSPATLSLSPGERATLSCKSSQSLLDSGNQKNFLTWYQQKPGKAPKLLIYWASTRESGVPSRFSGSGSGTDFTFTISSLEAEDAATYYCQNDYSYPYTFGQGTKVEIKRTVAAPSVFIFPPSDEQLKSGTASVVCLLNNFYPREAKVQWKVDNALQSGNSQESVTEQDSKDSTYSLSSTLTLSKADYEKHKVYACEVTHQGLSSPVTKSFNRGEC
7	2	4	–	humanized mAb BAP049-hum09 (antibody, human IgG4 S228P, kappa, Human IgG4(S228P), human kappa; tested as concentrated supernatant of transiently transfected CHO cells; also called Clone No. 09) heavy: not shown light: EIVLTQSPDFQSVTPKEKVTITCKSSQSLLDSGNQKNFLTWYQQKPGQAPRLLIYWASTRESGVPSRFSGSGSGTDFTFTISSLEAEDAATYYCQNDYSYPYTFGQGTKVEIKRTVAAPSVFIFPPSDEQLKSGTASVVCLLNNFYPREAKVQWKVDNALQSGNSQESVTEQDSKDSTYSLSSTLTLSKADYEKHKVYACEVTHQGLSSPVTKSFNRGEC
6	3	2	–	humanized mAb BAP049-hum02 (antibody, human IgG4 S228P, kappa, V domains shown, Human IgG4(S228P), human kappa; tested as concentrated supernatant of transiently transfected CHO cells) VH: EVQLVQSGAEVKKPGESLRISCKGSGYTFTTYWMHWVRQATGQGLEWMGNIYPGTGGSNFDEKFKNRVTITADKSTSTAYMELSSLRSEDTAVYYCTRWTTGTGAYWGQGTTVTVSS VL: DIQMTQSPSSLSASVGDRVTITCKSSQSLLDSGNQKNFLTWYQQKPGQAPRLLIYWASTRESGIPPRFSGSGYGTDFTLTINNIESEDAAYYFCQNDYSYPYTFGQGTKVEIKR
3	8	16	–	humanized mAb BAP049-hum12 (antibody, human IgG4 S228P, kappa, V domains shown, Human IgG4(S228P), human kappa; tested as concentrated supernatant of transiently transfected CHO cells) VH: EVQLVQSGAEVKKPGESLRISCKGSGYTFTTYWMHWVRQATGQGLEWMGNIYPGTGGSNFDEKFKNRVTITADKSTSTAYMELSSLRSEDTAVYYCTRWTTGTGAYWGQGTTVTVSS VL: DIQMTQSPSSLSASVGDRVTITCKSSQSLLDSGNQKNFLTWYLQKPGQSPQLLIYWASTRESGVPSRFSGSGSGTDFTFTISSLEAEDAATYYCQNDYSYPYTFGQGTKVEIKR
–	–	–	~0.8	chimeric antibody BAP049-chi (Tyr) (antibody, human IgG4 S228P, kappa, V domains shown, Murine variable regions, human IgG4(S228P), human kappa; also called BAP049-chi-Y; Chi mAb (Tyr)) VH: QVQLQQSGSELVRPGASVKLSCKASGYTFTTYWMHWVRQRPGQGLEWIGNIYPGTGGSNFDEKFKNRTSLTVDTSSTTAYMHLASLTSEDSAVYYCTRWTTGTGAYWGQGTTVTVSS VL: DIVMTQSPSSLTVTAGEKVTMSCKSSQSLLDSGNQKNFLTWYQQKPGQPPKLLIFWASTRESGVPDRFTGSGSVTDFTLTISSVQAEDLAVYYCQNDYSYPYTFGQGTKVEIKR
6	1	1	–	humanized mAb BAP049-hum13 (antibody, human IgG4 S228P, kappa, Human IgG4(S228P), human kappa; tested as concentrated supernatant of transiently transfected CHO cells) heavy: not shown light: DVVMTQSPLSLPVTLGQPASISCKSSQSLLDSGNQKNFLTWYQQKPGKAPKLLIYWASTRESGVPSRFSGSGSGTDFTFTISSLEAEDAATYYCQNDYSYPYTFGQGTKVEIKRTVAAPSVFIFPPSDEQLKSGTASVVCLLNNFYPREAKVQWKVDNALQSGNSQESVTEQDSKDSTYSLSSTLTLSKADYEKHKVYACEVTHQGLSSPVTKSFNRGEC
